# Reference: article PMC9249852, “Transcription factor paralogs orchestrate alternative gene regulatory networks by context-dependent cooperation with multiple cofactors”
# B1: probe-dsx (dsx-1) (dsDNA)
# DNA 1: AATATTTTATAAATTTAATAAATTGAGTCGTATGCCGTCTTCTGCTTG
# DNA 2: CAAGCAGAAGACGGCATACGACTCAATTTATTAAATTTATAAAATATT
# B2: probe-Scr-Dll consensus (dsDNA)
# DNA 1: TGGGCCTGGTAATTAATTTAATTATCCAGGTCGTATGCCGTCTTCTGCTTG
# DNA 2: CAAGCAGAAGACGGCATACGACCTGGATAATTAAATTAATTACCAGGCCCA
# B3: probe-dpy (dpy-1) (dsDNA)
# DNA 1: ATCGTTAAATTACCGCAATTTGCATGTTCGTATGCCGTCTTCTGCTTG
# DNA 2: CAAGCAGAAGACGGCATACGAACATGCAAATTGCGGTAATTTAACGAT
# Key:
# Details in all cases: protein: recombinant;recombinant; tags: N-terminal 6xHis (pQE30) and EGFP with TEV linker; C-terminal FLAG;N-terminal T7; C-terminal 6xHis; copies: 1;1; label: 5' biotin on strand 2 (SR1 primer); blunt
# EGFP-Scr-FLAG;T7-Dll-His [1] = biological target: T1, EGFP-Scr-FLAG;T7-Dll-His (Drosophila melanogaster?;Drosophila …, UniProt P09077;P20009 1-417;1-327, |); assay: biotin-DNA pull-down, anti-FLAG western; Dll enhances Scr binding; Dll on DNA not probed; Pull-down in 1 ml: 500 ul protein in dialysis buffer (20 mM HEPES pH 8.0, 200 mM NaCl, 10% glycerol, 2 mM MgCl2, 0.05% Tween-20) + 500 ul probe mix with 200 ul
# EGFP-Scr-FLAG;T7-Dll-His [2] = biological target: T1, EGFP-Scr-FLAG;T7-Dll-His; assay: biotin-DNA pull-down, anti-FLAG western; Dll increases Scr binding, concentration-dependent; Dll on DNA not probed; Pull-down in 1 ml: 500 ul protein in dialysis buffer (20 mM HEPES pH 8.0, 200 mM NaCl, 10% glycerol, 2 mM MgCl2, 0.05% Tween-20) + 500 ul probe mix with 200 ul
# EGFP-Scr-FLAG;T7-Dll-His [3] = biological target: T1, EGFP-Scr-FLAG;T7-Dll-His; assay: biotin-DNA pull-down, anti-FLAG western; Dll assists Scr binding; Dll on DNA not probed; Pull-down in 1 ml: 500 ul protein in dialysis buffer (20 mM HEPES pH 8.0, 200 mM NaCl, 10% glycerol, 2 mM MgCl2, 0.05% Tween-20) + 500 ul probe mix with 200 ul
# T1 sequence (P09077 whole entry, chain 1 of 2): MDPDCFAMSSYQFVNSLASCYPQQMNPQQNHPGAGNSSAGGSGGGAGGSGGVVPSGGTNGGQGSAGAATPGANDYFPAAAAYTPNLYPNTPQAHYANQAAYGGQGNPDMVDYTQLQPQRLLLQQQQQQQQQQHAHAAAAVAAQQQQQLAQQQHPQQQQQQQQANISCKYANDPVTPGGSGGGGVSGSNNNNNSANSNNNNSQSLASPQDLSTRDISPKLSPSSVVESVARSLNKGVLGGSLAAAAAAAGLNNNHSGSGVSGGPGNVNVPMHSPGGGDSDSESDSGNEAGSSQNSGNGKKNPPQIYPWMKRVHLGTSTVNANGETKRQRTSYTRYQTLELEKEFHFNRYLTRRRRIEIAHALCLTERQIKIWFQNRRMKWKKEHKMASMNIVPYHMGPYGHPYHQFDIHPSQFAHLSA
# T1 sequence (P20009 whole entry, chain 2 of 2): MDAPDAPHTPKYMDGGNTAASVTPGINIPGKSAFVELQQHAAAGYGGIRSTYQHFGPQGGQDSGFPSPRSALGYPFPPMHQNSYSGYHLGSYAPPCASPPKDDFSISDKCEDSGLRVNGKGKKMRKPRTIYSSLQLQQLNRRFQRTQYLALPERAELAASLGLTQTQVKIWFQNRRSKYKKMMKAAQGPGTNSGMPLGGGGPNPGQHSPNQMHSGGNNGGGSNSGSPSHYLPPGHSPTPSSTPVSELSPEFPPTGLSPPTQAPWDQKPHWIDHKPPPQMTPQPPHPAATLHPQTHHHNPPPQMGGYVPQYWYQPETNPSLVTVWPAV
binder,measurement,setting,value
B1,binding result,EGFP-Scr-FLAG;T7-Dll-His [1],binds
B2,binding result,EGFP-Scr-FLAG;T7-Dll-His [2],binds
B3,binding result,EGFP-Scr-FLAG;T7-Dll-His [3],binds
